Values belong to the binder of their own block, whether it stands above or below them.
Key:
Test in all cases: SPOT array
[1] = target: T1, Yhr016c SH3 (YSC84_YEAST), P32793
T1 chain: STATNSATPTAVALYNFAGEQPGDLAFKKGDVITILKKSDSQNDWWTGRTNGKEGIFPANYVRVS

[2] = target: T2, Yfr024 SH3 (LSB3_YEAST), P43603
T2 chain: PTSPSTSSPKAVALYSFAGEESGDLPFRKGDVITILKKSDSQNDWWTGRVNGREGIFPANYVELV

[3] = target: T3, Rvs167 SH3 (RV167_YEAST), P39743
T3 chain: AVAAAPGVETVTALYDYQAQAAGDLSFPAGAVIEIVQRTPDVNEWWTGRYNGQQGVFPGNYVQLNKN

[4] = target: T4, Boi1 SH3 (BOI1_YEAST), P38041
T4 chain: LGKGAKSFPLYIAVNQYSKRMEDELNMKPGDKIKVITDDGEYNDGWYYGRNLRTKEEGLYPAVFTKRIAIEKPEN

[5] = target: T5, Boi2 SH3 (BOI2_YEAST), P39969
T5 chain: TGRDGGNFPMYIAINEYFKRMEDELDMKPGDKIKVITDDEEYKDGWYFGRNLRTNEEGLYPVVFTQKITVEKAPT

normalised SPOT signal, Boehringer light units (BLU); mean over the file's lines of this peptide [1]: 0 | normalised SPOT signal, Boehringer light units (BLU); mean over the file's lines of this peptide [2]: 3700 | normalised SPOT signal, Boehringer light units (BLU); mean over the file's lines of this peptide [3]: 45.3 | normalised SPOT signal, Boehringer light units (BLU); mean over the file's lines of this peptide [4]: 9.1 | normalised SPOT signal, Boehringer light units (BLU); mean over the file's lines of this peptide [5]: 34.1
B1: YPL242C 77-90 (peptide)
chain: KLKPSLPNKLVGKY

normalised SPOT signal, Boehringer light units (BLU); mean over the file's lines of this peptide [1]: 151 | normalised SPOT signal, Boehringer light units (BLU); mean over the file's lines of this peptide [2]: 9910 | normalised SPOT signal, Boehringer light units (BLU); mean over the file's lines of this peptide [3]: 35.2 | normalised SPOT signal, Boehringer light units (BLU); mean over the file's lines of this peptide [4]: 244 | normalised SPOT signal, Boehringer light units (BLU); mean over the file's lines of this peptide [5]: 25.8
B2: YLL015W 63-76 (peptide)
chain: KNFPTLPSKINSRH

normalised SPOT signal, Boehringer light units (BLU); mean over the file's lines of this peptide [1]: 404 | normalised SPOT signal, Boehringer light units (BLU); mean over the file's lines of this peptide [2]: 2490 | normalised SPOT signal, Boehringer light units (BLU); mean over the file's lines of this peptide [3]: 425 | normalised SPOT signal, Boehringer light units (BLU); mean over the file's lines of this peptide [4]: 112 | normalised SPOT signal, Boehringer light units (BLU); mean over the file's lines of this peptide [5]: 343
B3: YLR115W 535-548 (peptide)
chain: KMFPFNPAKIKKDD

normalised SPOT signal, Boehringer light units (BLU); mean over the file's lines of this peptide [1]: 3830 | normalised SPOT signal, Boehringer light units (BLU); mean over the file's lines of this peptide [2]: 10800 | normalised SPOT signal, Boehringer light units (BLU); mean over the file's lines of this peptide [3]: 29100 | normalised SPOT signal, Boehringer light units (BLU); mean over the file's lines of this peptide [4]: 2120 | normalised SPOT signal, Boehringer light units (BLU); mean over the file's lines of this peptide [5]: 45.2
B4: YGL085W 143-156 (peptide)
chain: KNLPTIPIRLSGID

normalised SPOT signal, Boehringer light units (BLU); mean over the file's lines of this peptide [1]: 241 | normalised SPOT signal, Boehringer light units (BLU); mean over the file's lines of this peptide [2]: 41.3 | normalised SPOT signal, Boehringer light units (BLU); mean over the file's lines of this peptide [3]: 22.9 | normalised SPOT signal, Boehringer light units (BLU); mean over the file's lines of this peptide [4]: 69.8 | normalised SPOT signal, Boehringer light units (BLU); mean over the file's lines of this peptide [5]: 58.5
B5: YBL101C 851-864 (peptide)
chain: KPDPESPSKLRHYE

normalised SPOT signal, Boehringer light units (BLU); mean over the file's lines of this peptide [1]: 162 | normalised SPOT signal, Boehringer light units (BLU); mean over the file's lines of this peptide [2]: 286 | normalised SPOT signal, Boehringer light units (BLU); mean over the file's lines of this peptide [3]: 25.3 | normalised SPOT signal, Boehringer light units (BLU); mean over the file's lines of this peptide [4]: 57 | normalised SPOT signal, Boehringer light units (BLU); mean over the file's lines of this peptide [5]: 19.5
B6: YPR052C 15-28 (peptide)
chain: KKDPNAPKRALSAY

normalised SPOT signal, Boehringer light units (BLU); mean over the file's lines of this peptide [1]: 682 | normalised SPOT signal, Boehringer light units (BLU); mean over the file's lines of this peptide [2]: 3000 | normalised SPOT signal, Boehringer light units (BLU); mean over the file's lines of this peptide [3]: 178 | normalised SPOT signal, Boehringer light units (BLU); mean over the file's lines of this peptide [4]: 32 | normalised SPOT signal, Boehringer light units (BLU); mean over the file's lines of this peptide [5]: 180
B7: YAL024C 312-325 (peptide)
chain: KIMPPTPAKKVEFI

normalised SPOT signal, Boehringer light units (BLU); mean over the file's lines of this peptide [1]: 2960 | normalised SPOT signal, Boehringer light units (BLU); mean over the file's lines of this peptide [2]: 13400 | normalised SPOT signal, Boehringer light units (BLU); mean over the file's lines of this peptide [3]: 280 | normalised SPOT signal, Boehringer light units (BLU); mean over the file's lines of this peptide [4]: 181 | normalised SPOT signal, Boehringer light units (BLU); mean over the file's lines of this peptide [5]: 71.2
B8: YJR092W 851-864 (peptide)
chain: KMTPSTPVRSISPI

normalised SPOT signal, Boehringer light units (BLU); mean over the file's lines of this peptide [1]: 109 | normalised SPOT signal, Boehringer light units (BLU); mean over the file's lines of this peptide [2]: 332 | normalised SPOT signal, Boehringer light units (BLU); mean over the file's lines of this peptide [3]: 12.2 | normalised SPOT signal, Boehringer light units (BLU); mean over the file's lines of this peptide [4]: 103 | normalised SPOT signal, Boehringer light units (BLU); mean over the file's lines of this peptide [5]: 49.2
B9: YGR140W 421-434 (peptide)
chain: KKDPFPPPKDLLVQ

normalised SPOT signal, Boehringer light units (BLU); mean over the file's lines of this peptide [1]: 288 | normalised SPOT signal, Boehringer light units (BLU); mean over the file's lines of this peptide [2]: 241 | normalised SPOT signal, Boehringer light units (BLU); mean over the file's lines of this peptide [3]: 151 | normalised SPOT signal, Boehringer light units (BLU); mean over the file's lines of this peptide [4]: 190 | normalised SPOT signal, Boehringer light units (BLU); mean over the file's lines of this peptide [5]: 46.3
B10: YBR089C-A 21-34 (peptide)
chain: KKDPNAPKRRLSAY

normalised SPOT signal, Boehringer light units (BLU); mean over the file's lines of this peptide [1]: 92.4 | normalised SPOT signal, Boehringer light units (BLU); mean over the file's lines of this peptide [2]: 178 | normalised SPOT signal, Boehringer light units (BLU); mean over the file's lines of this peptide [3]: 79.2 | normalised SPOT signal, Boehringer light units (BLU); mean over the file's lines of this peptide [4]: 160 | normalised SPOT signal, Boehringer light units (BLU); mean over the file's lines of this peptide [5]: 1.3
B11: YAR002W 350-363 (peptide)
chain: KISPSAPSKDSFTK

normalised SPOT signal, Boehringer light units (BLU); mean over the file's lines of this peptide [1]: 95.4 | normalised SPOT signal, Boehringer light units (BLU); mean over the file's lines of this peptide [2]: 10700 | normalised SPOT signal, Boehringer light units (BLU); mean over the file's lines of this peptide [3]: 86.7 | normalised SPOT signal, Boehringer light units (BLU); mean over the file's lines of this peptide [4]: 239 | normalised SPOT signal, Boehringer light units (BLU); mean over the file's lines of this peptide [5]: 15.3
B12: YFR030W 641-654 (peptide)
chain: KLRPDLPVKNFVVK

normalised SPOT signal, Boehringer light units (BLU); mean over the file's lines of this peptide [1]: 112 | normalised SPOT signal, Boehringer light units (BLU); mean over the file's lines of this peptide [2]: 1300 | normalised SPOT signal, Boehringer light units (BLU); mean over the file's lines of this peptide [3]: 33.3 | normalised SPOT signal, Boehringer light units (BLU); mean over the file's lines of this peptide [4]: 56.8 | normalised SPOT signal, Boehringer light units (BLU); mean over the file's lines of this peptide [5]: 22
B13: YPR104C 439-452 (peptide)
chain: KKPPKIPKKVYTLE

normalised SPOT signal, Boehringer light units (BLU); mean over the file's lines of this peptide [1]: 408 | normalised SPOT signal, Boehringer light units (BLU); mean over the file's lines of this peptide [2]: 149 | normalised SPOT signal, Boehringer light units (BLU); mean over the file's lines of this peptide [3]: 9.5 | normalised SPOT signal, Boehringer light units (BLU); mean over the file's lines of this peptide [4]: 181 | normalised SPOT signal, Boehringer light units (BLU); mean over the file's lines of this peptide [5]: 68.1
B14: YDR485C 336-349 (peptide)
chain: KKYPRKPKKNLNLG

normalised SPOT signal, Boehringer light units (BLU); mean over the file's lines of this peptide [1]: 21700 | normalised SPOT signal, Boehringer light units (BLU); mean over the file's lines of this peptide [2]: 30600 | normalised SPOT signal, Boehringer light units (BLU); mean over the file's lines of this peptide [3]: 11100 | normalised SPOT signal, Boehringer light units (BLU); mean over the file's lines of this peptide [4]: 20000 | normalised SPOT signal, Boehringer light units (BLU); mean over the file's lines of this peptide [5]: 219
B15: YIR018W 29-42 (peptide)
chain: KLPPRLPHRAAQRR

normalised SPOT signal, Boehringer light units (BLU); mean over the file's lines of this peptide [1]: 124 | normalised SPOT signal, Boehringer light units (BLU); mean over the file's lines of this peptide [2]: 249 | normalised SPOT signal, Boehringer light units (BLU); mean over the file's lines of this peptide [3]: 6.8 | normalised SPOT signal, Boehringer light units (BLU); mean over the file's lines of this peptide [4]: 154 | normalised SPOT signal, Boehringer light units (BLU); mean over the file's lines of this peptide [5]: 52.1
B16: YMR044W 286-299 (peptide)
chain: KPKPPKPIKYHFED

normalised SPOT signal, Boehringer light units (BLU); mean over the file's lines of this peptide [1]: 1790 | normalised SPOT signal, Boehringer light units (BLU); mean over the file's lines of this peptide [2]: 7040 | normalised SPOT signal, Boehringer light units (BLU); mean over the file's lines of this peptide [3]: 2650 | normalised SPOT signal, Boehringer light units (BLU); mean over the file's lines of this peptide [4]: 110 | normalised SPOT signal, Boehringer light units (BLU); mean over the file's lines of this peptide [5]: 46.7
B17: YPR097W 347-360 (peptide)
chain: KKSPRLPHRNKKVT

normalised SPOT signal, Boehringer light units (BLU); mean over the file's lines of this peptide [1]: 105 | normalised SPOT signal, Boehringer light units (BLU); mean over the file's lines of this peptide [2]: 196 | normalised SPOT signal, Boehringer light units (BLU); mean over the file's lines of this peptide [3]: 66 | normalised SPOT signal, Boehringer light units (BLU); mean over the file's lines of this peptide [4]: 17.6 | normalised SPOT signal, Boehringer light units (BLU); mean over the file's lines of this peptide [5]: 16.9
B18: YOR219C 616-629 (peptide)
chain: KLGPDTPIKVAGPL

normalised SPOT signal, Boehringer light units (BLU); mean over the file's lines of this peptide [1]: 94.6 | normalised SPOT signal, Boehringer light units (BLU); mean over the file's lines of this peptide [2]: 11.4 | normalised SPOT signal, Boehringer light units (BLU); mean over the file's lines of this peptide [3]: 15.8 | normalised SPOT signal, Boehringer light units (BLU); mean over the file's lines of this peptide [4]: 76 | normalised SPOT signal, Boehringer light units (BLU); mean over the file's lines of this peptide [5]: 90.6
B19: YFL054C 238-251 (peptide)
chain: KLEPENPQKPSNTH

normalised SPOT signal, Boehringer light units (BLU); mean over the file's lines of this peptide [1]: 85.9 | normalised SPOT signal, Boehringer light units (BLU); mean over the file's lines of this peptide [2]: 808 | normalised SPOT signal, Boehringer light units (BLU); mean over the file's lines of this peptide [3]: 9.1 | normalised SPOT signal, Boehringer light units (BLU); mean over the file's lines of this peptide [4]: 136 | normalised SPOT signal, Boehringer light units (BLU); mean over the file's lines of this peptide [5]: 32.6
B20: YER164W 1280-1293 (peptide)
chain: KKLPTGPSKKRQRK

normalised SPOT signal, Boehringer light units (BLU); mean over the file's lines of this peptide [1]: 15.7 | normalised SPOT signal, Boehringer light units (BLU); mean over the file's lines of this peptide [2]: 252 | normalised SPOT signal, Boehringer light units (BLU); mean over the file's lines of this peptide [3]: 26.7 | normalised SPOT signal, Boehringer light units (BLU); mean over the file's lines of this peptide [4]: 180 | normalised SPOT signal, Boehringer light units (BLU); mean over the file's lines of this peptide [5]: 33.5
B21: YLL021W 1085-1098 (peptide)
chain: KNSPLAPIKKNVEL

normalised SPOT signal, Boehringer light units (BLU); mean over the file's lines of this peptide [1]: 61.3 | normalised SPOT signal, Boehringer light units (BLU); mean over the file's lines of this peptide [2]: 98.6 | normalised SPOT signal, Boehringer light units (BLU); mean over the file's lines of this peptide [3]: 67.9 | normalised SPOT signal, Boehringer light units (BLU); mean over the file's lines of this peptide [4]: 309 | normalised SPOT signal, Boehringer light units (BLU); mean over the file's lines of this peptide [5]: 54.4
B22: YDL027C 313-326 (peptide)
chain: KNLPLNPSKKLEGK

Source: paper PMC314469, “Protein Interaction Networks by Proteome Peptide Scanning” (PLoS Biology, 2004)
